Test results reported in US20030235860A1, “Interactions between AR, ER, TR2, and TR4” (priority 1999, published 2003).

Columns and labels:
TR4-DR1 = TR4-DR1 (Homo sapiens, UniProt P49116); settings: increasing amounts of in vitro translated AR (1, 2, 4 μl)
Protocol: EMSA was performed as described previously. […] Briefly, the reaction was performed by incubating the 32P-end labeled DR1 probe with in vitro translated TR4 (1 ml) with or without an increasing amount of AR (1, 2, 4 ml). The EMSA incubation buffer is 10 mM HEPES, pH 7.9, 2% (v/v) glycerol, 100 mM KCl, 1 mM EDTA, 5 mM MgCl, and 1 mM DTT. For the antibody supershifted analysis, 1 ml of monoclonal anti-TR4 antibody (#15) was added to the reaction. […] The radioactive gel was analyzed by autoradiography.
One μl of in vitro translated TR4 protein was incubated with increasing amounts of in vitro translated AR (1 μl, 2 μl, and 4 μl) in EMSA reaction buffer (10 mM HEPES pH 7.9, 2% (v/v) glycerol, 100 mM KCl, 1 mM EDTA, 5 mM MgCl2, and 1 mM DTT) for 15 min. 32P-end labeled DR1 was added into the protein mixture and incubated for 15 min before loading. For the antibody supershift assay, 1 μl of monoclonal anti-TR4 antibody was added to the reaction and applied to a 5% native polyacrylamide gel. The radioactive gel was analyzed by autoradiography.

cyclin D1 = test: Western blot of cyclin D1 in MCF-7-TR4 cells; assay type: cell-based; settings: 10 nM E2, Dox
Protocol: MCF-7-TR4 or MCF-7-pBIG cells were cultured in DMEM containing 10% charcoal dextran-treated FBS for 3 days and then 1×10^6 cells were seeded on 100-mm dishes. […] The lysate protein amount was quantitated by Bradford assay (Bio-Rad, Hercules, Calif.) with bovine serum albumin as a reference standard. One hundred μg protein was loaded and after electrophoresis on 10% SDS-PAGE was transferred onto Immobulin (Milipore, Bedford, Mass.). The membrane was blotted with anti-cyclin D1 rabbit polyclonal Ab (H-295) (Santa Cruz). Alkaline phosphatase conjugated secondary Ab was used.

pS2 = test: Northern blot of pS2 in MCF-7-TR4 cells; assay type: cell-based; settings: 2 μg/ml Dox, E2
AR = biological target: T1, AR (Homo sapiens, UniProt P10275, DEL79-80/DUP473-473); test: Immunocytofluorescence of AR localization in DU145 cells; assay type: cell-based; set-up: expressed in transfected cells; host or cells: DU145 cells; settings: absence of DHT
T1 sequence (P10275 with tags, fused parts or gaps DEL79-80/DUP473-473): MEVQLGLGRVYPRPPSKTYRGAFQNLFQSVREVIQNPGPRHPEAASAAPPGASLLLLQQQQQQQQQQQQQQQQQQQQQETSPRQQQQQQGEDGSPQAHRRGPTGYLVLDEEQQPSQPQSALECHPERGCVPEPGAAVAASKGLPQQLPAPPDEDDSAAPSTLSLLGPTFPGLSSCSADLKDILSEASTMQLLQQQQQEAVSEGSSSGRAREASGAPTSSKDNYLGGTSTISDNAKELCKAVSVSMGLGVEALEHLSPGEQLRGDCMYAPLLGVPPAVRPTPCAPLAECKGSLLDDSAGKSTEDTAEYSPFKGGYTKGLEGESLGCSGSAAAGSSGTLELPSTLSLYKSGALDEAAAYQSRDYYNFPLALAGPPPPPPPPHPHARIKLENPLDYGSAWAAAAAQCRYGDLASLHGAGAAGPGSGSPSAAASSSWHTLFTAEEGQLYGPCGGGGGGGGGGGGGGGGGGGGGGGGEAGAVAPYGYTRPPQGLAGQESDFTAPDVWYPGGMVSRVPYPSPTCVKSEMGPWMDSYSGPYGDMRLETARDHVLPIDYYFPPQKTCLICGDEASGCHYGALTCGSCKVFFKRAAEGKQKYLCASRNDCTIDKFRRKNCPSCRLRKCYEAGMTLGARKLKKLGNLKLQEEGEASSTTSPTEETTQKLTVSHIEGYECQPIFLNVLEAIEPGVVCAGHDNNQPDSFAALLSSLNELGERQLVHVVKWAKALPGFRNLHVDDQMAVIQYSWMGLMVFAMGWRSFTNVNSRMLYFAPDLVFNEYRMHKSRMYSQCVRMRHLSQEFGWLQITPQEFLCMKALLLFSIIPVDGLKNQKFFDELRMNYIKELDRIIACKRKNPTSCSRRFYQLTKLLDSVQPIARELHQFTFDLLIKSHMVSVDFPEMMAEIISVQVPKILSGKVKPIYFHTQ
Protocol: DU145 cells were seeded on two-well Lab Tek Chamber slides (Nalge Nunc International) 18 h before transfection. One to two μg of DNA per 10^5 cells was transfected by the FuGENETM 6 transfection reagent (Boehringer-Mannheim). […] Immunostaining was performed by incubating with anti-AR polyclonal antibody (NH27), anti-TR4 monoclonal antibody (#15), and anti-ERa monoclonal antibody (C-314, Santa Cruz), followed by incubation with either fluorescein-conjugated goat anti-rabbit or anti-mouse antibodies (ICN Pharmaceuticals, Inc.). […] The slides were photographed under 100-fold magnification using confocal microscopy.
An immunocytofluorescence assay was then applied to determine the subcellular localization of the AR and TR4 in DU145 cells. DU145 cells were seeded on two-well Lab Tek Chamber slides (Nalge Nunc International) 18 hours before transfection. One to two μg of DNA per 105 cells was transfected either with AR (unliganded or liganded), TR4, or ER alone or in combination with the FuGENETM6 transfection reagent (Boehringer-Mannheim). […] Immunostaining was performed by incubation with the anti-AR polyclonal antibody, anti-TR4 monoclonal antibody, or anti-ERa monoclonal antibody, followed by incubation with either fluorescein-conjugated goat anti-rabbit or anti-mouse antibodies (ICN Pharmaceuticals, Inc.).

PR = test: Endogenous PR expression in T47D cells (Northern / Western); assay type: cell-based, human
Protocol: The method was used as previously described, Lee & Chang. (1996) J. Biol. Chem. 271. 10405-10412, with some modifications. Briefly. 5 μg of pCMV-TR2 was transiently transfected into T47D cells and lysed in RIPA buffer (10 mM sodium phosphate, pH 7.0. 150 mM NaCL, 2 mM EDT A. 1% (w/v) Nonidet P-40, 0.1% (w/v) SDS. 1% (w/v) sodium deoxycholate) with freshly adding proteinase inhibitors. The soluble protein was quantified using the Bio-Rad Protein Assay reagent (Bio-Rad Laboratories) and 50 μg soluble proteins were loaded onto SDS/10% PAGE and then transferred to Immobion-P transfer membrane (Millipore). After the blocking reaction overnight, the membrane was incubated with […] anti-PR polyclonal antibody (H-190. Santa Cruz) in PBS(−) containing 0.1% Skim milk for 2 h at room temperature. The membrane was washed and then incubated in 15 μCi 125I] of protein-A (DuPont NEN)/30 ml of PBS(−) containing 0.1% Skim milk for 1 h at room temperature. The western blots were autoradiographed and quantitated by using Phosphorlmager.
RNA isolation and Northern blot analysis were performed as previously described. Young, et al., J. Biol. Chem. 273,20877-20885 (1998).
Next it was determined if TR2 could repress the ER endogenous target gene expression. PR was chosen because it is well studied as an E2-ER target gene in T47D cells. Misrahi et al., Biochem. Biophys. Res. Commun. 143, 740-748 (1987). […] Cells were then used for RNA isolation (Northern blot analysis) and lysate protein extraction (Western blot analysis). For RNA analysis, total RNAs were isolated, and Northern blots were performed using [32P] labeled PR cDNA probes. The membrane was autoradiographed. For Protein Western blot analysis, cells lysates were prepared and PR proteins were visualized by radioimmunoblot. The membrane was autoradiographed to Phosphorimager and was quantitated by ImageQuant software.

**Q.** For AR: androgen receptor, SEQ ID NO:31, which “Specific TR4-DR1 band” value (TR4-DR1) is on record?
**A.** The value was “decreased”.

B1: TR4: human testicular orphan nuclear receptor 4, SEQ ID NO:16; expressed from plasmid or in vitro translated (protein)
chain: MTSPSPRIQIISTDSAVASPQRIQGSEPASGPLSVFTSLNKEKIVTDQQTGQKIQIVTAVDASGSPKQQFILTSPDGAGTGKVILASPETSSAKQLIFTTSDNLVPGRIQIVTDSASVERLLGKTDVQRPQVVEYCVVCGDKASGRHYGAVSCEGCKGFFKRSVRKNLTYSCRSSQDCIINKHHRNRCQFCRLKKCLEMGMKMESVQSERKPFDVQREKPSNCAASTEKIYIRKDLRSPLIATPTFVADKDGARQTGLLDPGMLVNIQQPLIREDGTVLLATDSKAETSQGALGTLANVVTSLANLSESLNNGDTSEIQPEDQSASEITRAFDTLAKALNTTDSSSSPSLADGIDTSGGGSIHVISRDQSTPIIEVEGPLLSDTHVTFKLTMPSPMPEYLNVHYICESASRLLFLSMHRARSIPAFQGLGQDCNTSLVRACWNELFTLGLAQCAQVMSLSTILAAIVNHLQNSIQEDKLSGDRIKQVMEHIWKLQEFCNSMANWDIDGYEYAYLKAIVLFSPDHPGLTSTSQIEKFQEKAQMELQDYVQKTYSEDTYRLARILVRLPALRLMSSNITEELFFTGLIGNVSIDSIIPYILKMETAEYNGQITGVSL
**Q.** What does the source list for B1?
**A.** Cyclin D1 expression (cyclin D1): suppress; Expression of ER endogenous target gene pS2 (pS2): repress; Subcellular localization of unliganded AR on co-transfection (AR): moves into the nucleus

B2: TR2: human testicular orphan nuclear receptor 2, 603 amino acids (protein, UniProt P13056 1-603, looked up)
chain: MATIEEIAHQIIEQQMGEIVTEQQTGQKIQIVTALDHNTQGKQFILTNHDGSTPSKVILARQDSTPGKVFLTTPDAAGVNQLFFTTPDLSAQHLQLLTDNSPDQGPNKVFDLCVVCGDKASGRHYGAVTCEGCKGFFKRSIRKNLVYSCRGSKDCIINKHHRNRCQYCRLQRCIAFGMKQDSVQCERKPIEVSREKSSNCAASTEKIYIRKDLRSPLTATPTFVTDSESTRSTGLLDSGMFMNIHPSGVKTESAVLMTSDKAESCQGDLSTLANVVTSLANLGKTKDLSQNSNEMSMIESLSNDDTSLCEFQEMQTNGDVSRAFDTLAKALNPGESTACQSSVAGMEGSVHLITGDSSINYTEKEGPLLSDSHVAFRLTMPSPMPEYLNVHYIGESASRLLFLSMHWALSIPSFQALGQENSISLVKAYWNELFTLGLAQCWQVMNVATILATFVNCLHNSLQQDKMSTERRKLLMEHIFKLQEFCNSMVKLCIDGYEYAYLKAIVLFSPDHPSLENMEQIEKFQEKAYVEFQDYITKTYPDDTYRLSRLLLRLPALRLMNATITEELFFKGLIGNIRIDSVIPHILKMEPADYNSQIIGHSI
modifications: full-length
notes: human testicular orphan nuclear receptor 2, 603 amino acids
**Q.** What does the source list for B2?
**A.** E2-induced PR expression at mRNA and protein levels (PR; T47D cells and MCF7 cells, Example 2): repress; Expression of endogenous PR mRNA (PR; T47D cells transfected with pCMV-TR2, 10 nM E2): clearly repressed; Endogenous PR expression (Western blot) (PR; T47D cells, similar in MCF7): repress
